Reference: article doi:10.1101/2021.12.26.474192 (bioRxiv, 2021)

B1: psNb 2-34 (VHH)
VHH: HVQLVESGGGLVQAGGSLRLSCAASGRTFSRYAAGWFRQAPGKEREFVAVIEWDGDSAYYADPVKGRFTISRDNAKNTVYLQMNRLKPEDTAVYICAVGGNHYSRSKYYNLDEYDDWGQGTQVTVSS
B2: psNb 2-31 (VHH)
VHH: QVQLVESGGGLVQAGESLRLSCAASKPTFRNFAAGWFRQTPGKDREFVAVIEYDGDSAYYADSVKGRFTISRDNAKNTVYLQMNRLKPGDTAVYICAIGGNHYDPSKYYTADEYDYWGQGTQVTVSS
B3: psNb 2-45 (VHH)
VHH: QVQLVESGGGLVQAGGSLRLSCTASGYDFSILAIAWYRQAPGKERELVAAISRVGSTDYADSVKGRFTISRDNTKNTVSLQMDSLKPEDTAVYYCNAGIPMTTVLSGLGFWGQGTQVTVSS
B4: psNb 1-23 (VHH)
VHH: QVQLVESGGGLVQAGGSLRLSCAASGRTDSISDMGWFRQAPGKEREFVAVVGWSGGGTDYAHSVKGRFTISRDNAKNTVYLQMNSLKPEDTAVYYCAVGSLRVGSFSVEYWGQGTQVTVSS
B5: psNb 1-22 (VHH)
VHH: HVQLVESGGGLVQPGGSLRLSCAASGRSFNSYLMGWFRQAPGKEREFVAWISGSPHDIIRYRDSVKDRFTISRDNAKNTVYLQMNSLKPVDTAVYYCAVGSLRVGSFSPDYWGQGTQVTVSS
B6: psNb 1-21 (VHH)
VHH: HVQLVESGGGLVQAGGSLRLSCAAPGRTFSTSAMGWFRQAPGKEREFVAAIDWSNTNIHYADTVKGRFTISTDTAKNTVYLQMNNLKPEDTAVYYCAQGGWGLTQPISVDYWGKGTQVTVSS
B7: psNb 2-38 (VHH)
VHH: QVQLVESGGGLVQAGGSLRLSCAAAARFSTSAMGWFRQAPGKEREFVAAISWSNTNTHYADTVKGRFTISADTAKETVDLQMNSLKPEDTAVYYCVQGGWGIRQPIIVDYWGKGTQVTVSS
B8: psNb 2-65 (VHH)
VHH: HVQLVESGGGLVQAGGSLRLSCAASGTISTLNAMGWYRQAPGKQRELLASISNLGTTYHADSVAGRFTISRGSAKNTVNLQMNSLKPDDTAVYYCNTRVLEGGTQIRDYWGQGTQVTVSS
B9: psNb 2-67 (VHH)
VHH: EVQLVESGGGLVQTGGSLRLSCALSGYTFSIFPTAWFRQAPGKEREFVAGIRWNGSTRDYTEYADFVKGRFTISRDNAKNMVYLQMISLKPEDTALYYCAASDGVIDGTNANAYRYWGQGTQVTVSS
B10: psNb 2-10 (VHH)
VHH: QVQLVESGGGLVQPGGSLRLSCAASGFTFNRYAMSWVRQAPGKGREWVSGIYSDGSETYYTESVKGRFTISRDNAKNMLYLQMNSLKPEDTALYYCAKDENAHEDYFNSGFDRKYDYWGQGTQVTVSS
B11: psNb 1-25 (VHH)
VHH: HVQLVESGGGLVQAGGSLRLSCATSGRTFSTYRMSWFRQAPGKEREFVATIIWSVGSTHYADSVKGRFTISRDNAKNMVYLQMNSLKPEDTAVYYCAAQRSDSSSWGYEDDYDYWGQGTQVTVSS
B12: psNb 2-62 (VHH)
VHH: QVQLVESGGGLVQAGGSLRLSCAASGRTFSTYAMAWFRQAPGKEREFVAGVARSADTTYYGDSVKGRFTISRDNAKNEVNLQMSSLKPEDTAVYYCAARSVIQYGIVPGNDFHYEYWGQGTQVTVSS

Molecular target: Rp3-CoV RBD, residues 322-504 (Bat coronavirus Rp3/2004, UniProt Q3I5J5)
Assay: ELISA

| Binder | binding result |
| --- | --- |
| B1 | binds |
| B2 | binds |
| B3 | binds |

Molecular target: RaTG13-CoV RBD, residues 319-541 (Bat coronavirus RaTG13, UniProt A0ABF7PLN6, strain)
Assay: ELISA

| Binder | binding result |
| --- | --- |
| B1 | binds |
| B2 | binds |
| B3 | binds |

Molecular target: Yun11-CoV RBD, residues 310-515 (Bat coronavirus Cp/Yunnan2011, UniProt R9QTH3)
Assay: ELISA

| Binder | binding result |
| --- | --- |
| B1 | binds |
| B2 | binds |
| B3 | binds |

Molecular target: Rs7327-CoV RBD, residues 319-518 (Bat SARS-like coronavirus Rs7327, UniProt A0A2D1PXC0, strain)
Assay: ELISA

| Binder | binding result |
| --- | --- |
| B1 | binds |
| B2 | binds |
| B3 | binds |

Molecular target: YN2013-CoV RBD, residues 314-496 (BtRs-BetaCoV/YN2013, UniProt A0A0U1WJY8, strain)
Assay: ELISA

| Binder | binding result |
| --- | --- |
| B1 | binds |
| B2 | binds |
| B3 | binds |

Molecular target: Rf1-CoV RBD, residues 310-515 (Bat SARS CoV Rf1/2004, UniProt Q0QDZ0, strain)
Assay: ELISA

| Binder | binding result |
| --- | --- |
| B1 | binds |
| B2 | binds |
| B3 | binds |

Molecular target: HKU3-1-CoV RBD, residues 322-505 (Bat coronavirus HKU3, isolate HKU3-1, UniProt Q3LZX1, strain)
Assay: ELISA

| Binder | binding result |
| --- | --- |
| B1 | binds |
| B2 | binds |
| B3 | binds |

Molecular target: T1, SARS-CoV RBD, residues 318-510 (SARS-CoV (GenBank AAP13441.1), UniProt P59594)
Assay: ELISA

| Binder | binding result |
| --- | --- |
| B4 | binds |
| B1 | binds |
| B5 | binds |
| B6 | binds |
| B7 | binds |

Molecular target: BtkY72-CoV RBD, residues 309-530 (Bat sarbecovirus BtKY72, UniProt A0A3Q8AKM0)
Assay: ELISA

| Binder | binding result |
| --- | --- |
| B1 | binds |
| B2 | binds |
| B3 | binds |

Molecular target: Rs4081-CoV RBD, residues 310-515 (Bat SARS-like coronavirus Rs4081, UniProt A0A2D1PX44, strain)
Assay: ELISA

| Binder | binding result |
| --- | --- |
| B1 | binds |
| B2 | binds |
| B3 | binds |

Molecular target: SHC014-CoV RBD, residues 307-524 (Bat SARS-like coronavirus RsSHC014, UniProt U5WLK5, strain)
Assay: ELISA

| Binder | binding result |
| --- | --- |
| B1 | binds |
| B2 | binds |
| B3 | binds |

Molecular target: T2, BM-4831-CoV RBD, residues 310-530 (Bat coronavirus BM48-31/BGR/2008, strain)
Assay: ELISA

| Binder | binding result |
| --- | --- |
| B4 | binds |
| B1 | binds |
| B5 | binds |
| B7 | binds |
| B8 | binds |

Molecular target: T3, SARS-CoV-2 receptor-binding domain (RBD), S protein residues 319-539 (SARS-CoV-2, GenBank MN985325.1 …, UniProt P0DTC2)
Assay: ELISA

| Binder | binding result |
| --- | --- |
| B4 | binds |
| B1 | binds |
| B5 | binds |
| B6 | binds |
| B7 | binds |
| B8 | binds |

Molecular target: Shaanxi2011-CoV RBD, residues 321-502 (Bat coronavirus Rp/Shaanxi2011, UniProt R9QTA0, strain)
Assay: ELISA

| Binder | binding result |
| --- | --- |
| B1 | binds |
| B2 | binds |
| B3 | binds |

Molecular target: W1V1-CoV RBD, residues 307-528 (Bat SARS-like coronavirus WIV1 (printed …, UniProt U5WI05))
Assay: ELISA

| Binder | binding result |
| --- | --- |
| B1 | binds |
| B2 | binds |
| B3 | binds |

Molecular target: pangolin17-CoV RBD, residues 317-539 (Pangolin coronavirus (pangolin17), strain)
Assay: ELISA

| Binder | binding result |
| --- | --- |
| B1 | binds |
| B2 | binds |
| B3 | binds |

Molecular target: ZC45-CoV RBD, residues 327-509 (Bat SARS-like coronavirus ZC45, UniProt A0A2R3SUW7, strain)
Assay: ELISA

| Binder | binding result |
| --- | --- |
| B1 | binds |
| B2 | binds |
| B3 | binds |

Molecular target: Rs4092-CoV RBD, residues 314-496 (Bat SARS-like coronavirus Rs4092, UniProt A0A2D1PX37, strain)
Assay: ELISA

| Binder | binding result |
| --- | --- |
| B1 | binds |
| B2 | binds |
| B3 | binds |

Molecular target: SARS-CoV-2 spike receptor-binding domain (RBD) used in the crystallographic study (SARS-CoV-2, UniProt P0DTC2)
Assay: crystal structure

| Binder | binding result |
| --- | --- |
| B6 | binds |

Molecular target: T3, SARS-CoV-2 receptor-binding domain …
Assay: cryo-EM structure

| Binder | binding result |
| --- | --- |
| B9 | binds |
| B10 | binds |
| B11 | binds |
| B12 | binds |

Molecular target: T1, SARS-CoV RBD, residues 318-510
Assay: SPR

| Binder | Kd [nM] |
| --- | --- |
| B2 | 0.00396 |
| B3 | 304 |

Molecular target: T2, BM-4831-CoV RBD, residues 310-530
Assay: SPR

| Binder | Kd [nM] |
| --- | --- |
| B2 | 3.6 |
| B3 | 0.044 |

Molecular target: T3, SARS-CoV-2 receptor-binding domain …
Assay: SPR

| Binder | Kd [nM] |
| --- | --- |
| B2 | < 0.001 |
| B3 | 0.39 |
